Here are results for ten molecules from publication PMC4768490 (Structure (London, England : 1993), 2015).

The target in assay [1] is Kap60 lacking the IBB (ΔIBB-Kap60) (S. cerevisiae) (UniProt Q02821). As to the kind of experiment: ITC. (In general: In ITC the heat of successive injections is recorded.)
The target in assay [2] is T1, Kap60 lacking the IBB (ΔIBB-Kap60) (S. cerevisiae, UniProt Q02821 88-509).
T1 sequence: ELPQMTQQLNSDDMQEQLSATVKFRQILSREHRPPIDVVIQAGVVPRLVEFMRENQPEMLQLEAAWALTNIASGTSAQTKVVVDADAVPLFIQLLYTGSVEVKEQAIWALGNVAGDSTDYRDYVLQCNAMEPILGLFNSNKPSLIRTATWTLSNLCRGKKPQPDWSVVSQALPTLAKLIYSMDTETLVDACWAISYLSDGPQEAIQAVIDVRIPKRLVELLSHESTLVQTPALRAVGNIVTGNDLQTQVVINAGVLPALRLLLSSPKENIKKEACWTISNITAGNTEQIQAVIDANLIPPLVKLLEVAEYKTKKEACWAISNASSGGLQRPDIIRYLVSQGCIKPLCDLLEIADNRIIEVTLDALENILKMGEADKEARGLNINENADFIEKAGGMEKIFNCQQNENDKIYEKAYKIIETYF
In words: pull-down.

Assay [3] deals with T1, Kap60 lacking the IBB (ΔIBB-Kap60). As to the kind of experiment: ITC.

As a reminder, the Kd is the concentration at which binding is half-saturated. Read a high Kd as lower affinity. In assay [1], “nucleoplasmin bipartite NLS (NP-NLS), control (peptide)” yielded a Kd of 46 nM.

B1: MBP-Nup2 (res. 1-51) (domain or fragment, S. cerevisiae, UniProt P32499 1-51, looked up)
chain: MAKRVADAQIQRETYDSNESDDDVTPSTKVASSAVMNRRKIAMPKRRMAFK
In the case of B1, the “percent of the ΔIBB-Kap60:h2NLS complex dissociated at 10-fold excess of Nup2” value in assay [2] amounted to 60%.

B2: MBP-tagged h2NLS (MBP-h2NLS), wild type (peptide, UniProt Q03281 100-137, looked up)
chain: TNKRKREQISTDNEAKMQIQEEKSPKKKRKKRSSKANK
For B2, the Kd in assay [3] came to 27.3 ± 8 nM.

B3: MBP-h2NLS with Ala-mutation at position P2' (R103A) (peptide, UniProt Q03281 100-137, looked up)
chain: TNKAKREQISTDNEAKMQIQEEKSPKKKRKKRSSKANK
With B3, the equilibrium dissociation constant (Kd) in assay [3] turned out to be 132 ± 27 nM.

B4: MBP-h2NLS with Ala-mutation at position P2 (K126A) (peptide, UniProt Q03281 100-137, looked up)
chain: TNKRKREQISTDNEAKMQIQEEKSPKAKRKKRSSKANK
The molecule B4 returned a dissociation constant Kd in assay [3] of 106 ± 15 nM.

B5: MBP-h2NLS with Ala-mutations at positions P2' and P2 (R103A, K126A) (peptide, UniProt Q03281 100-137, looked up)
chain: TNKAKREQISTDNEAKMQIQEEKSPKAKRKKRSSKANK
For the molecule B5, the Kd in assay [3] was 168 ± 32 nM.

B6: MBP-tagged h1NLS (MBP-h1NLS), wild type (peptide, UniProt Q03707 171-221, looked up)
chain: DTRKKRKDPDSDDWSESNSKENKIDNKHLNLLSSDSEIEQDYQKAKKRKTS
B6 registered a Kd in assay [3] of 30.5 ± 10 nM.

B7: MBP-h1NLS with Ala-mutation at position P2' (R176A) (peptide, UniProt Q03707 171-221, looked up)
chain: DTRKKAKDPDSDDWSESNSKENKIDNKHLNLLSSDSEIEQDYQKAKKRKTS
As to B7, the Kd in assay [3] is 123 ± 8.6 nM.

B8: MBP-h1NLS with Ala-mutation at position P2 (K190A) (peptide, UniProt Q03707 171-221, looked up)
chain: DTRKKRKDPDSDDWSESNSAENKIDNKHLNLLSSDSEIEQDYQKAKKRKTS
In assay [3], B8 had a Kd of 68.6 ± 14 nM.

B9: MBP-h1NLS with Ala-mutations at positions P2' and P2 (R176A, K190A) (peptide, UniProt Q03707 171-221, looked up)
chain: DTRKKAKDPDSDDWSESNSAENKIDNKHLNLLSSDSEIEQDYQKAKKRKTS
In assay [3], B9 displayed a Kd of 140 ± 26 nM.
